In US20210388110A1:
Changes are numbered by the printed parent chain. Values joined by “and” are separate entries in the source; they are usually repeats but may differ in a detail not shown here. Equal entries are not always repeated.

B1: TR01H112-E2702GsKsc/L0011-k0 (antibody, human IgG4 S228P, kappa, N297A, V domains shown)
VH: QVQLVESGGGVVQPGGSLRLSCAASGFTFSNAWMHWVRQAPGKGLEWVAQIKDKSQNYAQYYAESVKGRFTISRADSKNSIYLQMNSLKTEDTAVYYCRYVHYAAGYGVDIWGQGTTVTVSS
VL: DIVMTQSPLSLPVTPGEPASISCRSSQPLVHSNRNTYLHWYQQKPGQAPRLLIYKVSNRFSGVPDRFSGSGSGTDFTLKISRVEAEDVGVYYCGQGTQVPYTFGQGTKLEIKR
B2: TR01H102-E2702GsKsc/L0011-k0 (antibody, human IgG4 S228P, kappa, N297A, V domains shown)
VH: B1 VH with V11L, G16R, Q60T, Y62F, A75D, I81L, I111A
VL: B1 VL
B3: TR01H113-E2702GsKsc/L0011-k0 (antibody, human IgG4 S228P, kappa, N297A, V domains shown)
VH: B1 VH with Q60T, Y62V
VL: B1 VL
B4: TR01H098-E2702GsKsc/L0011-k0 (antibody, human IgG4 S228P, kappa, N297A, V domains shown)
VH: B1 VH with V11L, G16R, Q60P, A75D, I81L, I111A
VL: B1 VL
B5: TR01H104-E2702GsKsc/L0011-k0 (antibody, human IgG4 S228P, kappa, N297A, V domains shown)
VH: B1 VH with V11L, G16R, Q60T, Y62I, A75D, I81L, I111A
VL: B1 VL
B6: TR01H105-E2702GsKsc/L0011-k0 (antibody, human IgG4 S228P, kappa, N297A, V domains shown)
VH: B1 VH with V11L, G16R, Q60T, Y62L, A75D, I81L, I111A
VL: B1 VL
B7: TR01H107-E2702GsKsc/L0011-k0 (antibody, human IgG4 S228P, kappa, N297A, V domains shown)
VH: B1 VH with V11L, G16R, Q60T, Y62Q, A75D, I81L, I111A
VL: B1 VL
B8: TR01H109-E2702GsKsc/L0011-k0 (antibody, human IgG4 S228P, kappa, N297A, V domains shown)
VH: B1 VH with V11L, G16R, Q60T, Y62V, A75D, I81L, I111A
VL: B1 VL
B9: TR01H101-E2702GsKsc/L0011-k0 (antibody, human IgG4 S228P, kappa, N297A, V domains shown)
VH: B1 VH with V11L, G16R, Q60V, A75D, I81L, I111A
VL: B1 VL
B10: TR01H103-E2702GsKsc/L0011-k0 (antibody, human IgG4 S228P, kappa, N297A, V domains shown)
VH: B1 VH with V11L, G16R, Q60T, Y62G, A75D, I81L, I111A
VL: B1 VL
B11: TR01H095-E2702GsKsc/L0011-k0 (antibody, human IgG4 S228P, kappa, N297A, V domains shown)
VH: B1 VH with V11L, G16R, Q60F, A75D, I81L, I111A
VL: B1 VL
B12: TR01H106-E2702GsKsc/L0011-k0 (antibody, human IgG4 S228P, kappa, N297A, V domains shown)
VH: B1 VH with V11L, G16R, Q60T, Y62P, A75D, I81L, I111A
VL: B1 VL
B13: TR01H096-E2702GsKsc/L0011-k0 (antibody, human IgG4 S228P, kappa, N297A, V domains shown)
VH: B1 VH with V11L, G16R, Q60G, A75D, I81L, I111A
VL: B1 VL
B14: TR01H099-E2702GsKsc/L0011-k0 (antibody, human IgG4 S228P, kappa, N297A, V domains shown)
VH: B1 VH with V11L, G16R, A75D, I81L, I111A
VL: B1 VL
B15: TR01H097-E2702GsKsc/L0011-k0 (antibody, human IgG4 S228P, kappa, N297A, V domains shown)
VH: B1 VH with V11L, G16R, Q60L, A75D, I81L, I111A
VL: B1 VL
B16: TR01H108-E2702GsKsc/L0011-k0 (antibody, human IgG4 S228P, kappa, N297A, V domains shown)
VH: B1 VH with V11L, G16R, Q60T, Y62T, A75D, I81L, I111A
VL: B1 VL
B17: TR01H040-E2702GsKsc/H0610-E2704sEpsc/L0208-k0 (bispecific antibody, human IgG4 S228P, kappa, N297A)
heavy 1: QVQLVESGGGLVQPGRSLRLSCAASGFTFSNAWMHWVRQAPGKGLEWVAQIKDKSQNYATYYAESVKGRFTISRADSKNSIYLQMNSLKTEDTAVYYCRYVHYSASYGVDAWGQGTTVTVSSASTKGPSVFPLAPCSRSTSESTAALGCLVKDYFPEPVTVSWNSGALTSGVHTFPAVLQSSGLYSLSSVVTVPSSSLGTKTYTCNVDHKPSNTKVDKRVESKYGPPCPPCPAPEFRGGPKVFLFPPKPKDTLMISRTPEVTCVVVDVSQEDPEVQFNWYVDGVEVHNAKTKPREEQFASTYRVVSVLTVLHQDWLNGKEYKCKVSNKGLPSSIEKTISKAKGQPREPQVYTLPPSQKEMTKNQVSLTCLVKGFYPSDIAVEWESNGQPENNYKTTPPVLDSDGSFFLYSKLTVDKSRWQEGNVFSCSVMHEALHNRYTQKSLSLSP
heavy 2: QVQLVQSGAEVKKPGASVKVSCKASGYTFTDYEMHWIRQPPGQGLEWIGAIDGKTPDTAYSQKFKGRVTLTADKSTSTAYMELSSLTSEDTAVYYCTRFYSYTYWGQGTLVTVSSASTKGPSVFPLAPCSRSTSESTAALGCLVKDYFPEPVTVSWNSGALTSGVHTFPAVLQSSGLYSLSSVVTVPSSSLGTQTYTCNVDHKPSNTKVDKRVESKYGPPCPPCPAPEFRGGPKVFLFPPKPKDTLMISRTPEVTCVVVDVSQEDPEVQFNWYVDGVEVHNAKTKPREEQFASTYRVVSVLTVLHQDWLNGKEYKCKVSNKGLPSSIEKTISKAKGQPREPQVYTLPPSQEEMTKNQVSLTCLVKGFYPSDIAVEWESNGQPENNYKTTPPVLDSDGSFFLYSKLTVDKSRWQEGNVFSCSVMHEALHNHYTQESLSLSP
light: DIVMTQSPLSLPVTPGEPASISCRSSQSPVHSNRNTYLHWYQQKPGQAPRLLIYKVSNRFWGVPDRFSGSGSGTDFTLKISRVEAEDVGVYYCYQGTQVPYTFGQGTKLEIKRTVAAPSVFIFPPSDEQLKSGTASVVCLLNNFYPREAKVQWKVDNALQSGNSQESVTEQDSKDSTYSLSSTLTLSKADYEKHKVYACEVTHQGLSSPVTKSFNRGEC
B18: TR01H110-E2702GsKsc/L0011-k0 (antibody, human IgG4 S228P, kappa, N297A)
heavy: B17 heavy 1 with L11V, R19K, A75D, I81L, S104A, S106G
light: B17 light with S28P, P29L, W61S, Y94G
B19: TR01H040-E2702GsKsc/H0610-E2704sEpsc/L0206-k0 (bispecific antibody, human IgG4 S228P, kappa, N297A)
heavy 1: B17 heavy 1
heavy 2: B17 heavy 2
light: B17 light with W61S
B20: TR01H040-E2702GsKsc/H0610-E2704sEpsc/L0211-k0 (bispecific antibody, human IgG4 S228P, kappa, N297A)
heavy 1: B17 heavy 1
heavy 2: B17 heavy 2
light: B17 light with S28P, W61S
B21: TR01H091-E2702GsKsc/L0011-k0 (antibody, human IgG4 S228P, kappa, N297A)
heavy: B17 heavy 1 with R19K, A75D, I81L, S104A, S106G
light: B17 light with S28P, P29L, W61S, Y94G

Legend:
[1] = target: Mab Select SuRe Ligand; assay: SPR (Biacore T200), SuRe ligand on CM5 chip, antibody 5 ug/mL
[2] = target: extracellular matrix (BD Matrigel); assay: ECL on Matrigel-coated plate, relative to MRAH-G1d/MRAL-k0

Binder | SuRe binding (RU) [1] | ECM binding ratio (standard = 1) [2]
B1 | 8.8 RU | –
B2 | 0.5 RU | –
B3 | 7 RU | –
B4 | 1.6 RU | –
B5 | 1 RU | –
B6 | 0.8 RU | –
B7 | 1.4 RU | –
B8 | 2.2 RU | –
B9 | 0.5 RU | –
B10 | 1.4 RU | –
B11 | -0.2 RU | –
B12 | 0 RU | –
B13 | 2.7 RU | –
B14 | 0.6 RU | –
B15 | 0.1 RU | –
B16 | 0.4 RU | –
B17 | – | 50.4
B18 | 29.5 RU | –
B19 | – | 15.4
B20 | – | 15.5
B21 | 27.5 RU and 15 RU | –
